Assay results published in patent publication US20250049935.

Key:
DNase I = DNase I (UniProt P00639); test: cleavage_in_vitro; conditions: 10 mM Tris-HCl pH 7.5, 2.5 mM MgCl2, 0.5 mM CaCl2, 100 nM DNA, 0.6 unit/mL
[1] = molecular target: alpha thrombin (Homo sapiens) (UniProt P00734+P00734); test: MST; conditions: two HD1 aptamers flanking a poly(serinol phosphodiester) backbone of 30 amine-serinol units (X), grafted with 10 kDa PEG side chains; 20 mM HEPES pH 7.4, 150 mM NaCl, 2 mM CaCl2, 0.05% Tween; 10 nM thrombin
[2] = molecular target: thrombin (in C57BL/6 mouse plasma) (Mus musculus) (UniProt P19221+P19221); test: inhibition; conditions: two HD1 aptamers flanking a poly(serinol phosphodiester) backbone of 30 amine-serinol units (X), grafted with 10 kDa PEG side chains; in vivo i.v. 15 nmol in C57BL/6 mice; also 3-fold PT; neutralized by LNA antidote
[3] = molecular target: thrombin (in pooled normal plasma) (Homo sapiens) (UniProt P00734+P00734); test: inhibition; conditions: two HD1 aptamers flanking a poly(serinol phosphodiester) backbone of 30 amine-serinol units (X), grafted with 10 kDa PEG side chains; 5 uM in human plasma; almost three-fold longer clotting; reversed by LNA antidote

Chain of DNase I (P00639 23-282): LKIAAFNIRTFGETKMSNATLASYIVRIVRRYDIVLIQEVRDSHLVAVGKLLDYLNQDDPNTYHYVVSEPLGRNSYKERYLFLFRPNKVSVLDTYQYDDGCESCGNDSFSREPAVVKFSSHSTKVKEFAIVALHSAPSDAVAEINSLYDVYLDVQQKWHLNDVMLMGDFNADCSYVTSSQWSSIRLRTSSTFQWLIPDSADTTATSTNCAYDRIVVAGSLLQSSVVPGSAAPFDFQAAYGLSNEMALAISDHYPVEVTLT

TTTTTTTTTTTTTTT (double strand) [dT15:dA15 duplex]
activity (DNase I): 13.9 min

TTTTTTTTTTTTTTTNNNNNNNNNNNNNNNNNNNNNNNNNNNNNNTTTTTTTTTTTTTTT / AAAAAAAAAAAAAAA [PSP pacDNA:dA15 duplex]
activity (DNase I; poly(serinol phosphodiester) backbone of 30 units grafted with 10 kDa PEG): 32.2 min

GGTTGGTGTGGTTGGTTTTTNNNNNNNNNNNNNNNNNNNNNNNNNNNNNNTTTTTGGTTGGTGTGGTTGG [PSP pacHD1]
Kd [1]: 6.9 nM | activity (fold aPTT vs blank) [2]: 5 | activity (fold aPTT vs vehicle) [3]: 3

NNNNNNNNNNNNNNNTTTTTTTTTTTTTTT / AAAAAAAAAAAAAAA [Doubler PSP pacDNA:dA15 duplex]
activity (DNase I; symmetric doubler with two 15-unit poly(serinol phosphodiester) arms grafted with 10 kDa PEG): 38.1 min
